Paper PMC4043820

Target: OsWRKY53 (WT) (Oryza sativa (rice)) (UniProt A7BEY7)
Assay: EMSA
Conditions: 12 mM HEPES-KOH pH 8.0, 60 mM KCl, 4 mM MgCl2, 1 mM EDTA, 12% glycerol, 1 mM DTT, 2.5 mM PMSF, 0.1 ug protein in 20 ul, 20 min on ice; 6% PAGE in 1x TBE at …

Sequence of OsWRKY53 (WT) (Oryza sativa (rice)) (A7BEY7 entry or part of it): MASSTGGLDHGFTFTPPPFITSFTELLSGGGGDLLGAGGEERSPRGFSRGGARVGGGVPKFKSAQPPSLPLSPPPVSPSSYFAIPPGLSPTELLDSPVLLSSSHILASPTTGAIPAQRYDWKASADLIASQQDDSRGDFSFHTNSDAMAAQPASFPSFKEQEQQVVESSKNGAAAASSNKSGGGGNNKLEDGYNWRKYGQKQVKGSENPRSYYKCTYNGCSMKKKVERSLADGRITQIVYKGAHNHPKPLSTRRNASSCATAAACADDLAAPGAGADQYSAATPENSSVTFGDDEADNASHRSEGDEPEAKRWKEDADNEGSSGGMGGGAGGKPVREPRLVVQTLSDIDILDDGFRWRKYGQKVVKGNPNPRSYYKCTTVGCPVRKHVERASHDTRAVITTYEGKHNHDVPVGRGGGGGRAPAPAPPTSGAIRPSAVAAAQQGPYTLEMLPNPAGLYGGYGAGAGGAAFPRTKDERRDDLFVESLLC

How did the binding turn out when “TTTGGGGATGCTTCGGCGAAGGGGGTGAGGTCAAAGCTCGTGCGGTTTGACCGGTCAGACGAGGCGGCTGAGGCTCGCGC (double strand) [W-box probe (W)]” was run?
Its binding is “binds”.
